Data taken from patent US20220016254A1 (BEIJING QL BIOPHARMACEUTICAL, published 2022).
Where a chain is given by its changes, count along the chain named.

T1: human beta-Klotho (human, UniProt Q86Z14 1-1044)
T1 sequence (looked up): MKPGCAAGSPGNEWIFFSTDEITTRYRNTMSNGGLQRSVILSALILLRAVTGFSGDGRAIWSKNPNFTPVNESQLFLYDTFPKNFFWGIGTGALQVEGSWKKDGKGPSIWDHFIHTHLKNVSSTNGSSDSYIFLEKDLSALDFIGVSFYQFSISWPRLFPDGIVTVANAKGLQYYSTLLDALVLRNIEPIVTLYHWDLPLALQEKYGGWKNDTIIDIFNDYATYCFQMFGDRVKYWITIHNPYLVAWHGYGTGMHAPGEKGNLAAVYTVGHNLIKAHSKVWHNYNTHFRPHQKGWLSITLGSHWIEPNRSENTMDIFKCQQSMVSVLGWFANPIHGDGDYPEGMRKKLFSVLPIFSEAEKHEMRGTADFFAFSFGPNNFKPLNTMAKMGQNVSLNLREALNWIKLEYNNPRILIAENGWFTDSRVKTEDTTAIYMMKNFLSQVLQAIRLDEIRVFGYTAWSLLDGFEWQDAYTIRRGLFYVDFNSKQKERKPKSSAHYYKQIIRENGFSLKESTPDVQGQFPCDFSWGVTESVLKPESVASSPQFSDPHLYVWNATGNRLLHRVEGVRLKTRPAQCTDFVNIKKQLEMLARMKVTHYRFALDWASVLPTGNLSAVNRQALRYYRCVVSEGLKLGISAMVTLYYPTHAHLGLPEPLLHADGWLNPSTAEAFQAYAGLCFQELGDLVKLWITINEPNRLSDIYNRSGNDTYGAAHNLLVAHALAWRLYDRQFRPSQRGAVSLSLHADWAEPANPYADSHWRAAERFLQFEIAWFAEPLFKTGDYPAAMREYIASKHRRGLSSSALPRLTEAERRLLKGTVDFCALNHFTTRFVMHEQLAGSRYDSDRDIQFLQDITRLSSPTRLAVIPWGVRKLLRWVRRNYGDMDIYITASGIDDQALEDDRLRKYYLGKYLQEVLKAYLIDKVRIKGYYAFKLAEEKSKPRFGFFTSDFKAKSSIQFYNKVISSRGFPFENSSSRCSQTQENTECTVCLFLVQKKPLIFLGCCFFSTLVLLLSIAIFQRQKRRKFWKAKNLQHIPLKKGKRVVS

B1: Compound 66 (ligand)
chain: HGEGTFTSDVSSYLEEQAAKEFIAWLVKGGGGSAPGSPAGSPTGSAPGSPCHPIPDSSPLLQFGGQVRQRYLYTDDAQQTEAHLEIREDGTVGGAADQSPESLLQLKALKPGVIQILGVKTSRFLCQRPDGALYGSLHFDPEACSFRELLLEDGYNVYQSEAHGLPLHLPGQKSPHRDPAPRGPARFLPLPGLPPALPEPPGILAPQPPDVGSSDPLSLVGGSQCRSPSYES
modifications: Moiety B (HOOC-(CH2)20-CO-gGlu-2XADO-EDA-CO-CH2) on 51C and 225C of fusion polypeptide
B2: Compound 70 (ligand)
chain: HGEGTFTSDVSSYLEEQAAKEFIAWLVKGGGGGGGSGGGGSGGGGSGGGGCHPIPDSSPLLQFGGQVRQRYLYTDDAQQTEAHLEIREDGTVGGAADQSPESLLQLKALKPGVIQILGVKTSRFLCQRPDGALYGSLHFDPEACSFRELLLEDGYNVYQSEAHGLPLHLPGQKSPHRDPAPRGPARFLPLPGLPPALPEPPGILAPQPPDVGSSDPLSC
modifications: Moiety B (HOOC-(CH2)20-CO-gGlu-2XADO-EDA-CO-CH2) on 51C and 219C of fusion polypeptide
B3: Compound 69 (ligand)
chain: EGTFTSDVSSYLEEQAAKEFIAWLVKGGGGGGGSGGGGSGGGGSGGGGCHPIPDSSPLLQFGGQVRQRYLYTDDAQQTEAHLEIREDGTVGGAADQSPESLLQLKALKPGVIQILGVKTSRFLCQRPDGALYGSLHFDPEACSFRELLLEDGYNVYQSEAHGLPLHLPGQKSPHRDPAPRGPARFLPLPGLPPALPEPPGILAPQPPDVGSSDPLSLVGCSQGRSPSYES
modifications: Moiety B (HOOC-(CH2)20-CO-gGlu-2XADO-EDA-CO-CH2) on 49C and 220C of fusion polypeptide
B4: Compound 48 (ligand)
chain: HGEGTFTSDVSSYLEEQAAREFIAWLVRGGGGAQPGAQPGAQPGAQPGAQKHPIPDSSPLLQFGGQVRQRYLYTDDAQQTEAHLEIREDGTVGGAADQSPESLLQLRALRPGVIQILGVRTSRFLCQRPDGALYGSLHFDPEACSFRELLLEDGYNVYQSEAHGLPLHLPGQRSPHRDPAPRGPARFLPLPGLPPALPEPPGILAPQPPDVGSSDPLSLVGKSQGRSPSYES
modifications: Moiety A (HOOC-(CH2)16-CO-gGlu-2XADO) on 51K and 222K of fusion polypeptide
B5: Compound 2 (ligand)
chain: HGEGTFTSDVSSYLEEQAAKEFIAWLVRGGGGGGGSGGGGSGGGGSGGGGSHPIPDSSPLLQFGGQVRQRYLYTDDAQQTEAHLEIREDGTVGGAADQSPESLLQLRALRPGVIQILGVRTSRFLCQRPDGALYGSLHFDPEACSFRELLLEDGYNVYQSEAHGLPLHLPGQRSPHRDPAPRGPARFLPLPGLPPALPEPPGILAPQPPDVGSSDPLSLVGGSQGRSPSYKS
modifications: Moiety A (HOOC-(CH2)16-CO-gGlu-2XADO) on 20K and 231K of fusion polypeptide
B6: Compound 5 (ligand)
chain: B5 chain with K20R, S51K, G222K, K231A
modifications: Moiety A (HOOC-(CH2)16-CO-gGlu-2XADO) on 51K and 222K of fusion polypeptide
B7: Compound 54 (ligand)
chain: B5 chain with S51C, R107K, R110K, R120K, R173K, K231C
modifications: Moiety B (HOOC-(CH2)20-CO-gGlu-2XADO-EDA-CO-CH2) on 51C and 231C of fusion polypeptide
B8: Compound 52 (ligand)
chain: B5 chain with S51C, R107K, R110K, R120K, R173K, G225C, K231E
modifications: Moiety B (HOOC-(CH2)20-CO-gGlu-2XADO-EDA-CO-CH2) on 51C and 225C of fusion polypeptide
B9: Compound 51 (ligand)
chain: B5 chain with S51C, R107K, R110K, R120K, R173K, G222C, K231E
modifications: Moiety B (HOOC-(CH2)20-CO-gGlu-2XADO-EDA-CO-CH2) on 51C and 222C of fusion polypeptide
B10: Compound 4 (ligand)
chain: B5 chain with K20R, S51K
modifications: Moiety A (HOOC-(CH2)16-CO-gGlu-2XADO) on 51K and 231K of fusion polypeptide
B11: Compound 63 (ligand)
chain: B5 chain with R28K, S51C, R107K, R110K, R120K, R173K, G222C, K231E
modifications: Moiety B (HOOC-(CH2)20-CO-gGlu-2XADO-EDA-CO-CH2) on 51C and 222C of fusion polypeptide
B12: Compound 39 (ligand)
chain: HGEGTFTSDVSSYLEEQAAREFIAWLVRGGGGGGGSGGGGSGGGGSGGGGSGGGGSGGGGSGGGGSGGGGKHPIPDSSPLLQFGGQVRQRYLYTDDAQQTEAHLEIREDGTVGGAADQSPESLLQLRALRPGVIQILGVRTSRFLCQRPDGALYGSLHFDPEACSFRELLLEDGYNVYQSEAHGLPLHLPGQRSPHRDPAPRGPARFLPLPGLPPALPEPPGILAPQPPDVGSSDPLSLVGKSQGRSPSYES
modifications: Moiety A (HOOC-(CH2)16-CO-gGlu-2XADO) on 71K and 242K of fusion polypeptide
B13: Compound 71 (ligand)
chain: HGEGTFTSDVSSYLEEQAAKEFIAWLVKGGGGAQPGAQPGAQPGAQPGAQPCQAPGAQPGAQPGAQPGAQPGAQPGAQPGAQPGAQPGAQPGAQPGAQPGAQPGAQPGAQPHPIPDSSPLLQFGGQVRQRYLYTDDAQQTEAHLEIREDGTVGGAADQSPESLLQLKALKPGVIQILGVKTSRFLCQRPDGALYGSLHFDPEACSFRELLLEDGYNVYQSEAHGLPLHLPGQKSPHRDPAPRGPARFLPLPGLPPALPEPPGILAPQPPDVGSSDPLSLVGCSQGRSPSYES
modifications: Moiety B (HOOC-(CH2)20-CO-gGlu-2XADO-EDA-CO-CH2) on 52C and 282C of fusion polypeptide
B14: Compound 72 (ligand)
chain: B13 chain with C52G, Q53A, A54Q, A61Q, Q62C
modifications: Moiety B (HOOC-(CH2)20-CO-gGlu-2XADO-EDA-CO-CH2) on 62C and 282C of fusion polypeptide
B15: Compound 73 (ligand)
chain: B13 chain with A41Q, Q42C, C52G, Q53A, A54Q
modifications: Moiety B (HOOC-(CH2)20-CO-gGlu-2XADO-EDA-CO-CH2) on 42C and 282C of fusion polypeptide
B16: Compound 50 (ligand)
chain: HGEGTFTSDVSSYLEEQAAREFIAWLVRGGGGGGGSGGGGSGGGGSGGGGKHPIPDSSPLLQFGGQVRQRYLYTDDAQQTEAHLEIREDGTVGGAADQSPESLLQLRALRPGVIQILGVRTSRFLCQRPDGALYGSLHFDPEACSFRELLLEDGYNVYQSEAHGLPLHLPGQRSPHRDPAPRGPARFLPLPGLPPALPEPPGILAPQPPDVGSSDPLSLVGGSQGRSPSYESK
modifications: Moiety A (HOOC-(CH2)16-CO-gGlu-2XADO) on 51K and 233K of fusion polypeptide

Biological target: human GLP-1 receptor (human, UniProt P43220 24-463)
Test: cell-based or functional assay

Row | GLP-1 activity (EC50, pM); CRE luciferase reporter | Binder
1 | 41.3 pM | B1
2 | 24.8 pM | B2
3 | > 1000 pM | B3
4 | 14.4 pM | B4
5 | 46.6 pM | B5
6 | 23.1 pM | B6
7 | 19 pM | B7
8 | 30.2 pM | B8
9 | 30.7 pM | B9
10 | 25.1 pM | B10
11 | 49.1 pM | B11
12 | 12.6 pM | B12
13 | 16.5 pM | B13
14 | 16.5 pM | B14
15 | 16.6 pM | B15
16 | 15.4 pM | B16

Biological target: T1, human beta-Klotho
Test: cell-based or functional assay

Row | FGF21 activity (EC50, nM); p-ERK levels | Binder
17 | 1 nM | B1
18 | > 100 nM | B2
19 | 0.53 nM | B3
20 | 20.4 nM | B4
21 | 5.5 nM | B5
22 | 12.9 nM | B6
23 | 3.4 nM | B7
24 | 2.4 nM | B8
25 | 4.3 nM | B9
26 | 7.7 nM | B10
27 | 1.2 nM | B11
28 | 4.2 nM | B12
29 | 2.7 nM | B13
30 | 2.4 nM | B14
31 | 3.6 nM | B15
32 | 8.7 nM | B16
